# Values of other authors as cited in patent US8399407B2 (Case Western Reserve University, priority 2009, dated 2013).
# Settings: pH 7.4 and 37° C.
substance,measurement,value
Asp^B28-insulin,Susceptibility to fibrillation compared with human insulin,more susceptible to fibrillation
